The nanobody polyreactivity screen of Harvey et al. (2022)

Assay: yeast display, Sf9 membrane polyspecificity reagent, FACS + sequencing; frameworks hold sequencing errors
Method in brief: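 After 36–48 hours of galactose induction, yeast (Saccharomyces cerevisiae BJ5465) displaying a synthetic nanobody library were stained at 4 °C for 1 hour with 10% biotinylated, detergent-solubilized Sf9 membrane reagent. Streptavidin microbeads enriched the stained cells before FACS sorting into low and high (top ~1%) gates on anti-HA and streptavidin fluorescence. Each clone's polyreactivity label reflects its gate of origin.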

Row | Sequence | polyreactivity (PSR sort gate)
1 | QVQLVESGGGLVQAGGSLRLSCAASGFTFSSNAMGWSRPAPGKERELVAGITWSGGSTYYADSVKGRFTISRDNAKNTVYLQMNRLKPEDTAVYYCNFRYNASQYDYVYWGQGTQVTVSS | low polyreactivity
2 | QVQLVESGGGLVQAGGSLRLSCAASGFTFSSNAMGWYRQAPGKERELVAAISRGGRTYYADSVKGRFTISRDNAKNTVYLQMNSLKPEDTAVYYCATDYVYRYDYWGQGTQVTVSS | high polyreactivity
3 | QVQLVESGGGLVQAGGSLRLSCAASGFTFSSNAMGWYRQAPGKERELVAVIDSGDITNYADSVKGRFTISRDYAKNTVYLQMNSLKPEDTAVYYCAADSYSYFTDDHGYWGQGTQVTVSS | high polyreactivity
4 | QVQLVESGGGLVQAGGSLRLSCAASGFTFSSYDMGWYRQAPGKDRDLVAAIDFIDGSTYYADSVKGRFTISRDNAKKTVYLQKNSLKPEDTAVYYCAADPVFKVELWPVRVRVDYWGQGTQVTVSS | low polyreactivity
5 | QVQLVESGGGLVQAGGSLRLSCAASGFTFSSYVMGWYRQAPGKERELVAAISGSGGSTYYADSVKGRFTISRDNAKNTVYLQMNSLKPEDTAVYYCAAVRRVGPTSYYYWGQGTQVTVSS | high polyreactivity
6 | QVQLVESGGGLVQAGGSLRLSCAASGFTFSTNAMGWYRQAPGKERELVAAISRGGSTNYADSVKGRFTISRDIAKNTVYLQMNSLKPEDTAVYYCNAYQSPDEEEYYWGQGTQVTVSS | low polyreactivity
7 | QVQLVESGGGLVQAGGSLRLSCAASGFTFSTYAMGWYRPAPGKERELGAAISRSGGSTYYADSVKGRFTISRDNAKNTVYLQMNSLKPEDTAVYYCAADGLRRESSYYYWAQGTQVTVSS | high polyreactivity
8 | QVQLVESGGGLVQAGGSLRLSCAASGFTFSVNAMGWYRQAPGKERELVAAITWSGGSTYYADSVKGRFTISRDNAKNTDYLQMNSLKPEDTAVFYCNARAQSSWGFWYDYWGQGTQVTVSS | high polyreactivity
9 | QVQLVESGGGLVQAGGSLRLSCAASGFTFSVYTMGWYRQAPGNERELVAALRVSSGGTFYADSVKGRFTISRDNAKNTVYLQRNSLKPEDTAVYYCAVDRYTYDPIFSVVRRYDYWGQGTQVTVSS | high polyreactivity
10 | QVQLVESGGGLVQAGGSLRLSCAASGFTFSYNAMGWYRPAPGKERELVAVITKSGGSTYYADSVKGRFTISRDNAKNTVYLQMNSLKPEDTAVYYCNRQIKKLLTTHYYWGQGTQVTVSS | high polyreactivity
11 | QVQLVESGGGLVQAGGSLRLSCAASGFTFSYNAMGWYRQAPGKERELVAVIKSSGGRTYYADSVKGRFTISRDNAKNTVYLQMNSLKPEDTAVYYCNAVYLQHRYRMYYWGQGTQVTVSS | high polyreactivity
12 | QVQLVESGGGLVQAGGSLRLSCAASGFTFSYNAMGWYRQAPGKERELVAVINSSGGRTYYADSVKGRFTISRDNAKNTVYLQMNSLKPEDTAVYYCAARPVLAKYYYWGQGTQVTVSS | high polyreactivity
13 | QVQLVESGGGLVQAGGSLRLSCAASGFTFSYNTMGWYRQAPGKERELVAAISRSGGRTYYADSVKGRFTISRDNAKNTVYLQMNSLKPEDTAVYYCARYSVTGYGANSGPEMDYWGQGTQVTVSS | high polyreactivity
14 | QVQLVESGGGLVQAGGSLRLSCAASGFTFSYYALGWYRQAPGKERELVAVISDRGGITYYADSVKGRFTISRDNAKNTVYLQMNSRKPEDTAVYYCAAQNPRYNYRYYYWGQGTQVTVSS | low polyreactivity
15 | QVQLVESGGGLVQAGGSLRLSCAASGFTFSYYAMGWYRPAPGKERELVAAITSGGSTYYADYVKGRFTISRDNAKNTVYLQMNSLKPEDTAVYYCNADGWYYPTDDYWGQGTQVTVSS | low polyreactivity
16 | QVQLVESGGGLVQAGGSLRLSCAASGFTFSYYAMGWYRQAPGKERELVAAISFNGGRTYYADSVKGRFTISRDNAKNTVYLQMISLKPEDTAVYYCAARSLRPETLGDYWGQGTQVTVSS | high polyreactivity
17 | QVQLVESGGGLVQAGGSLRLSCAASGFTFSYYAMGWYRQAPGKERELVAAISGSGTRTYYADSVKGRFTISRDNAKNTVYLQMNSLKPEDTAVYYCAADLYVTYDYWGQGTQVTVSS | high polyreactivity
18 | QVQLVESGGGLVQAGGSLRLSCAASGFTFSYYAMGWYRQAPGKERELVAAISSGGSTYYADSVKGRFTISRDNAKNTVYLQMNSLKPEDTAVYYCNVLNYSSRHYLFSYDYWGQGTQVTVSS | high polyreactivity
19 | QVQLVESGGGLVQAGGSLRLSCAASGFTFTAYAMGWYRPAPGKERELVAAISYRGGRTNYAYSVKGRFTISRDNAKNTVYLQMNSLKPEDTAVYYCAARPRISTREMDYWGQGTQVTVSS | high polyreactivity
20 | QVQLVESGGGLVQAGGSLRLSCAASGFTFTAYAMGWYRQAPGKERELVAAINWSGSRTYYADSVKGRFTISRDHAKNTVYLQMNSLKPEDTAVYYCNTATSKSSYRHYDYWGQGTQVTVSS | high polyreactivity
21 | QVQLVESGGGLVQAGGSLRLSCAASGFTFTAYAMGWYRQEPGKERELVAAITGTGGSTKYADSVKGRFTISRDNATNTVYLQMNSLKPEDTAVYYCAKRYRLRGRYDYWGQGTQVTVSS | high polyreactivity
22 | QVQLVESGGGLVQAGGSLRLSCAASGFTFTDYAMGWYRQAPGKERELVAAITSGDSTYYADSVKGRFTISRDNAKNTVYLQMNSLKPEDTAVYYCNKLRRSPNSQYYYWGQGTQVTVSS | high polyreactivity

Row | Sequence | polyreactivity (PSR sort gate)
23 | QVQLVESGGGLVQAGGSLRLSCAASGFTFTFNAMGWYRQEPGKEREFVAAITWSGGSTYYADSVKGRFTISRDNAKNTVYLQMNSLKPEDTAVYYCAARLYRSFTFNYWGQGTQVTVSS | high polyreactivity
24 | QVQLVESGGGLVQAGGSLRLSCAASGFTFTGYAMGWYRQAPGKERELVAAITRGGGSTYYADSVKGRFTISRDNAKNTVYLQMNSLKPEDTAVYYCAAQRSRLIRISSPYYGHDYWGQGTQVTVSS | low polyreactivity
25 | QVQLVESGGGLVQAGGSLRLSCAASGFTFTGYAMGWYRQAPGKERELVAVISETGGSTYADSVKGRFTISRDNAKNTVYLQMNSLKPEDTAVYYCNARSGYYLRYYDYDYWGQGTQVTVSS | low polyreactivity
26 | QVQLVESGGGLVQAGGSLRLSCAASGFTFTHYAMGWYRQAPGKERELVAAITDTGGGTYYADSVKGRFTISRDTAKNTVYLQMNSLKPEDTAVYYCAKPTSYRGYYSWGQGTQVTVSS | high polyreactivity
27 | QVQLVESGGGLVQAGGSLRLSCAASGFTFTKYAMGWYRQAPGKERELVAAITSGTSTYYADSVKGRFTISRDNAKYTVYLQMNSLKPEVTAVYYCAAPLYGRYSYGYWGQCTQVTVSS | high polyreactivity
28 | QVQLVESGGGLVQAGGSLRLSCAASGFTFTPYAMGWYRQAPGKERELVAAITSTGGSTYYADSVKGRFTISRHNAKNTVYLQMNSLKPEDAAVYYCNAATPYSWGYRRGYWGQGTQVTVSS | high polyreactivity
29 | QVQLVESGGGLVQAGGSLRLSCAASGFTFTQYAMGWYRPAPGKECELVAAISRSGGSTYYADSVKGRFTISRDNAKNTVYLQMTSLKPEDTPVYYCAADWRFRYDYWGQGTQVTVSS | high polyreactivity
30 | QVQLVESGGGLVQAGGSLRLSCAASGFTFTRNAMGWYRQAPGKERELVAAISKRGGTTYYADSVKGRFTISRDNAKNTVYLQMNSLKPEDTAVYYCAKDGGITGGYWGQGTQVTVSS | high polyreactivity
31 | QVQLVESGGGLVQAGGSLRLSCAASGFTFTRYAMGWYRQAPGKERELVAAIRWSGGRTYYADSVKGRFTISRDNAKNTVYLQMNSLKPEDTAVYYCYAVFYDPRREYDYWGQGTQVTVSS | high polyreactivity
32 | QVQLVESGGGLVQAGGSLRLSCAASGFTFTRYAMGWYRQAPGKERELVAAITTNSGSRTYYADSVKGRFTISRDNAKNTVYLQMNSLKPEDTAVYYCAADGPVVRGYYWGQGTQVTVSS | high polyreactivity
33 | QVQLVESGGGLVQAGGSLRLSCAASGFTFTRYAMGWYRQAPGKERELVAVITYSGDTSYADSVKGRFTISRDNAKNTVYLQMNSLKPEDTAVYYCAVERAYYSDTGRYGYDYWGQGTQVTVSS | high polyreactivity
34 | QVQLVESGGGLVQAGGSLRLSCAASGFTFTSFAMGWYRQAPGKERELVAAISARGGRTNYADSVKGRFTISRDNAKNTVYLQKNSLKPEDTAVYYCAADGFRAAYLYDYWGQGTQVTVSS | high polyreactivity
35 | QVQLVESGGGLVQAGGSLRLSCAASGFTFTYNTMGWYRQAPGKERELVAAISRSGGSTYYADSVKGRFTISRDNAKNTVYLQMNSLKPEDTAVYYCAKQRRDYNGGYWGQGTQVTVSS | high polyreactivity
36 | QVQLVESGGGLVQAGGSLRLSCAASGFTFTYYAMGWYRQAPGKERELVAAISWSGDSTYYADSVKGRFTISRDNAKNTVYLQMNSLKPEDTAVYYCATEYSHTYDYWGQGTQVTVSS | low polyreactivity
37 | QVQLVESGGGLVQAGGSLRLSCAASGFTFTYYAMGWYRQAPGKERELVAVISSAGSTYYADSVKGRFTISRDNAKNTVYLQMNSLKPEDTAVYYCNAVGRYYSSGRYGHWGQGTQVTVSS | high polyreactivity
38 | QVQLVESGGGLVQAGGSLRLSCAASGFTFTYYTMGWYRPAPGKERELVAGISRSGGSTYYADSVKGRFTISRDNAKNTVYLQMNSLKPEDTAVYYCFPGKTRLYGYWGQGTQVTVSS | high polyreactivity
39 | QVQLVESGGGLVQAGGSLRLSCAASGFTFTYYVMGWYRQAPGKDRELVAAISQGGGSTYYADSVKGRFTISRDNAKNTVYLQMNSLKPEDTAVYYCAARRVGYGTDRYYGYDSWGQGTQVTVSS | high polyreactivity
40 | QVQLVESGGGLVQAGGSLRLSCAASGFTFVAYAMGWYRPAPGKERELVAAIRRTDTSTYYADSVKGRFTISRDNAKNTVYLQMNSLKPEDTAVYYCAADYWRRTYLGFDYWGQGTQVTVSS | low polyreactivity
41 | QVQLVESGGGLVQAGGSLRLSCAASGFTFVGYAIGWYRQAPGKERDMVAAITRRGGSTYYADSVKGRFTISRDNAKNTVYLQMNSLKPEDTAVYYCNKSSYRISVPRYDYWGQGTQVTVSS | high polyreactivity
42 | QVQLVESGGGLVQAGGSLRLSCAASGFTFVINDMGWYRQAPGKERELVADITSGGDTYYADSVKGRFTISRDNAKNTVYLQMNSLKAEDTAVYYCAADIYPDWIYLLYGYWGQGTQVTVSS | low polyreactivity
43 | QVQLVESGGGLVQAGGSLRLSCAASGFTFVKNAMGWYRQAPGNERELVAAISQSGGSTYYADSVKGRFTISRDNAKNTVYLQMNSLKPEDTAVYYCAATYYTYWGYRDYYWGQGTQVTVSS | high polyreactivity
